Test results: US20260234738A1

Legend:
[1] = target: high affinity human FcγR3a 176Val allotype receptor (human) (UniProt P08637); test: cell-based or functional assay
[2] = target: Bt-SARS-CoV-2 Spike Protein (RBD) (R319-F541).mFc (column 6 of Table 8) (SARS-CoV-2); test: Luminex beads, supernatant
[3] = target: MOD2-SARS-CoV-2 Spike Protein (RBD)(R319-F541).mmH (SARS-CoV-2); test: Luminex bead binding, antibody supernatant
[4] = target: MOD5-SARS-CoV-2 Spike Protein (RBD)(R319-F541).mmH (SARS-CoV-2); test: Luminex bead binding, antibody supernatant
[5] = target: MOD7-SARS-CoV-2 Spike Protein (RBD)(R319-F541).mmH (SARS-CoV-2); test: Luminex bead binding, antibody supernatant
[6] = target: MOD8-SARS-CoV-2 Spike Protein (RBD)(R319-F541).mmH (SARS-CoV-2); test: Luminex bead binding, antibody supernatant
[7] = target: MOD3-SARS-CoV-2 Spike Protein (RBD)(R319-F541).mmH (SARS-CoV-2); test: Luminex bead binding, antibody supernatant
[8] = target: MOD14-SARS-CoV-2 Spike Protein (RBD)(R319-F541).mmH (SARS-CoV-2); test: Luminex bead binding, antibody supernatant
[9] = target: MOD6-SARS-CoV-2 Spike Protein (RBD)(R319-F541).mmH (SARS-CoV-2); test: Luminex bead binding, antibody supernatant
[10] = target: MOD4-SARS-CoV-2 Spike Protein (RBD)(R319-F541).mmH (SARS-CoV-2); test: Luminex bead binding, antibody supernatant
[11] = target: MOD11-SARS-CoV-2 Spike Protein (RBD)(R319-F541).mmH (SARS-CoV-2); test: Luminex bead binding, antibody supernatant
[12] = target: MOD15-SARS-CoV-2 Spike Protein (RBD)(R319-F541).mmH (SARS-CoV-2); test: Luminex bead binding, antibody supernatant
[13] = target: MOD12-SARS-CoV-2 Spike Protein (RBD)(R319-F541).mmH (SARS-CoV-2); test: Luminex bead binding, antibody supernatant
[14] = target: MOD10-SARS-CoV-2 Spike Protein (RBD)(R319-F541).mmH (SARS-CoV-2); test: Luminex bead binding, antibody supernatant
[15] = target: MOD9-SARS-CoV-2 Spike Protein (RBD)(R319-F541).mmH (SARS-CoV-2); test: Luminex bead binding, antibody supernatant
MERS.hFc (mAb2664-L1) = test: Luminex beads, supernatant
MERS.mFc (mAb2663-L1) = test: Luminex beads, supernatant
Bt-MERS.hFc (mAb2664-L2) = test: Luminex beads, supernatant
[16] = target: full-length SARS-COV-2 spike protein (amino acids M1-T1273 of NCBI accession number YP_009724390.1) (SARS-CoV-2) (UniProt P0DTC2); test: cell-based or functional assay
[17] = target: SARS-CoV-2 spike protein, Wuhan-Hu-1 sequence (S-wt), on VSV pseudoparticles (SARS-CoV-2) (UniProt P0DTC2); test: cell-based or functional assay
[18] = target: MOD1-SARS-CoV-2 Spike Protein (RBD)(R319-F541).mmH (SARS-CoV-2); test: Luminex bead binding, antibody supernatant
[19] = target: MOD13-SARS-CoV-2 Spike Protein (RBD)(R319-F541).mmH (SARS-CoV-2); test: Luminex bead binding, antibody supernatant

high affinity human FcγR3a 176Val allotype receptor (human), sequence (P08637 17-254 F176V): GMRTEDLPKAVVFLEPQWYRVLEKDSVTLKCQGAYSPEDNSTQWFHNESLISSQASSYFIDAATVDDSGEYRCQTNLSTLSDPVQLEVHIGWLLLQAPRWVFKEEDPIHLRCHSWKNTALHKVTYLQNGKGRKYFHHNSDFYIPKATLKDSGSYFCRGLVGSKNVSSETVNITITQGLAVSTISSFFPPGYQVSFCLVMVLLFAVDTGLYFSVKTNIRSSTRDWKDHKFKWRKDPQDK

Substance: mAb10989 (antibody)
- ADCC (Activity (%)) [1]: 21.5%
- ADCC Mean RLU [1]: 10200 RLU
- MFI [2]: 16100 MFI
- binding signal (MFI) [3]: 16700 MFI
- binding signal (MFI) [4]: 3370 MFI
- binding signal (MFI) [5]: 15200 MFI
- binding signal (MFI) [6]: 6140 MFI
- binding signal (MFI) [7]: 18300 MFI
- binding signal (MFI) [8]: 18100 MFI
- binding signal (MFI) [9]: 19600 MFI
- binding signal (MFI) [10]: 15800 MFI
- binding signal (MFI) [11]: 16800 MFI
- binding signal (MFI) [12]: 15900 MFI
- binding signal (MFI) [13]: 15100 MFI
- binding signal (MFI) [14]: 15500 MFI
- binding signal (MFI) [15]: 17800 MFI

Substance: mAb10933 (antibody)
- ADCC (Activity (%)) [1]: 68.5%
- ADCC Mean RLU [1]: 9740 RLU
- MFI (MERS.hFc (mAb2664-L1)): 21 MFI
- MFI (MERS.mFc (mAb2663-L1)): 22 MFI
- MFI (Bt-MERS.hFc (mAb2664-L2)): 26 MFI

Substance: IgG1 Control (antibody)
- ADCP Max (% ADCP), Jurkat/hCD20/SARS-CoV-2 Spike cells [16]: 10.4%

Substance: mAb10987 (antibody)
- ADCC (Activity (%)) [1]: 29.4%
- ADCC Mean RLU [1]: 12000 RLU
- Relative neutralization at 5 µg/ml [17]: 100%

Substance: mAb10934 (antibody)
- ADCC Mean RLU [1]: 11700 RLU
- MFI (MERS.mFc (mAb2663-L1)): 77 MFI
- binding signal (MFI) [18]: 81 MFI
- binding signal (MFI) [3]: 27700 MFI
- binding signal (MFI) [4]: 6650 MFI
- binding signal (MFI) [5]: 29900 MFI
- binding signal (MFI) [6]: 6410 MFI
- binding signal (MFI) [7]: 25100 MFI
- binding signal (MFI) [8]: 28600 MFI
- binding signal (MFI) [19]: 30500 MFI
- binding signal (MFI) [9]: 30800 MFI
- binding signal (MFI) [10]: 31700 MFI
- binding signal (MFI) [11]: 30700 MFI
- binding signal (MFI) [12]: 27800 MFI
- binding signal (MFI) [13]: 32900 MFI
- binding signal (MFI) [14]: 30400 MFI
- binding signal (MFI) [15]: 31300 MFI
